From US20230272028

Tests used:
[1] = test system: CTSL1_2 8-mer FRET substrate Mca-ALFFSSPPK-Dnp
[2] = test system: CTSL1_2 9-mer FRET substrate Mca-ALFFSSPPSK-Dnp
[3] = test system: CTSL1_1 FRET substrate (ALFKSSFP)

Cathepsin L (CTSL1), recombinant human, sequence (chain, as listed by the source): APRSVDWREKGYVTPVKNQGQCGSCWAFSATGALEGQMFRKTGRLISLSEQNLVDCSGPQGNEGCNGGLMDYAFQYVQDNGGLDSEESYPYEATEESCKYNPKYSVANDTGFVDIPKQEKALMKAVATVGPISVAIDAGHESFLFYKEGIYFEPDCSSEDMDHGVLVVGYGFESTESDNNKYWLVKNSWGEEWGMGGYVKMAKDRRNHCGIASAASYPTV

## Cathepsin L (CTSL1), recombinant human
ALU30-14
ALU30-14, sequence (chain, as listed by the source): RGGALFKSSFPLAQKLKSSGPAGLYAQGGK
  30-mer peptide degradation by recombinant enzyme (MSP-MS): Peptides bearing the MMP14_1 motif with CTSL1_1 and ADAM17_2 were slightly lower efficiency
ALU30-15
ALU30-15, sequence (chain, as listed by the source): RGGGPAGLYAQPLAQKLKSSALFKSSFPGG
  30-mer peptide degradation by recombinant enzyme (MSP-MS): Peptides bearing the MMP14_1 motif with CTSL1_1 and ADAM17_2 were slightly lower efficiency
  comparison of cleavage efficiencies across the 30-mer library: it had slightly higher hepsin susceptibility and lower CTSL1 activity
[1]
  FRET substrate cleavage by recombinant enzyme: the new CTSL1_2 motif was not cleaved in the context of an 8-mer FRET peptide
ALU30-11
ALU30-11, sequence (chain, as listed by the source): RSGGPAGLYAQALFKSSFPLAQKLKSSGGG
  30-mer peptide degradation by recombinant enzyme (MSP-MS): Peptides bearing the MMP14_1 motif with CTSL1_1 and ADAM17_2 were slightly lower efficiency
ALU30-13
ALU30-13, sequence (chain, as listed by the source): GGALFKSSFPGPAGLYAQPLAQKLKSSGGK
  30-mer peptide degradation by recombinant enzyme (MSP-MS): Peptides bearing the MMP14_1 motif with CTSL1_1 and ADAM17_2 were slightly lower efficiency
ALU30-17
ALU30-17, sequence (chain, as listed by the source): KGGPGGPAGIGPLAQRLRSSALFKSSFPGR
  30-mer peptide degradation by recombinant enzyme (MSP-MS): CTSL1 treatment of the 30-mer peptide library produced cleavages in all peptides bearing a CTSL1_1 or CTSL1_2 motif
[2]
  FRET substrate cleavage by recombinant enzyme: This 9-mer FRET substrate bearing the CTSL1_2 motif produced comparable catalytic efficiency to the CTSL1_1 motif
ALU30-1
ALU30-1, sequence (chain, as listed by the source): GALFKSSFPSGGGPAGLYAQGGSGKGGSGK
  30-mer peptide degradation by recombinant enzyme (MSP-MS): CTSL1 treatment of the 30-mer peptide library produced cleavages in all peptides bearing a CTSL1_1 or CTSL1_2 motif
ALU30-10
ALU30-10, sequence (chain, as listed by the source): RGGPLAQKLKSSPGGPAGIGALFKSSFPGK
  30-mer peptide degradation by recombinant enzyme (MSP-MS): The most efficiently cleaved peptides were those containing the FAPa_1, CTSL1_1 and ADAM17_2 motifs, in multiple orders
ALU30-5
ALU30-5, sequence (chain, as listed by the source): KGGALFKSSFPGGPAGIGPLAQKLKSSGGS
  30-mer peptide degradation by recombinant enzyme (MSP-MS): The most efficiently cleaved peptides were those containing the FAPa_1, CTSL1_1 and ADAM17_2 motifs, in multiple orders
ALU30-6
ALU30-6, sequence (chain, as listed by the source): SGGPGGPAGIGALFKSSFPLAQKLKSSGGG
  30-mer peptide cleavage (mass spectrometry): Both peptides showed rapid disappearance of substrate (squares) and product formation from cleavage at the target scissile bond
  30-mer peptide degradation by recombinant enzyme (MSP-MS): The most efficiently cleaved peptides were those containing the FAPa_1, CTSL1_1 and ADAM17_2 motifs, in multiple orders
ALU30-12
ALU30-12, sequence (chain, as listed by the source): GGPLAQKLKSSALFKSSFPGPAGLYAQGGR
  30-mer peptide degradation by recombinant enzyme (MSP-MS): Peptides bearing the MMP14_1 motif with CTSL1_1 and ADAM17_2 were slightly lower efficiency
ALU30-18
ALU30-18, sequence (chain, as listed by the source): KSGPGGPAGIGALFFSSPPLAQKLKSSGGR
  30-mer peptide cleavage (mass spectrometry): Both peptides showed rapid disappearance of substrate (squares) and product formation from cleavage at the target scissile bond
  30-mer peptide degradation by recombinant enzyme (MSP-MS): CTSL1 treatment of the 30-mer peptide library produced cleavages in all peptides bearing a CTSL1_1 or CTSL1_2 motif
ALU30-8
ALU30-8, sequence (chain, as listed by the source): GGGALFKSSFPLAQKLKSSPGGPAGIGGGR
  30-mer peptide degradation by recombinant enzyme (MSP-MS): The most efficiently cleaved peptides were those containing the FAPa_1, CTSL1_1 and ADAM17_2 motifs, in multiple orders
ALU30-16
ALU30-16, sequence (chain, as listed by the source): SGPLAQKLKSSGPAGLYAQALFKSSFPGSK
  30-mer peptide degradation by recombinant enzyme (MSP-MS): Peptides bearing the MMP14_1 motif with CTSL1_1 and ADAM17_2 were slightly lower efficiency
ALU30-7
ALU30-7, sequence (chain, as listed by the source): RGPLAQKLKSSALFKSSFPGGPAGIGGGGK
  30-mer peptide degradation by recombinant enzyme (MSP-MS): The most efficiently cleaved peptides were those containing the FAPa_1, CTSL1_1 and ADAM17_2 motifs, in multiple orders
ALU30-9
ALU30-9, sequence (chain, as listed by the source): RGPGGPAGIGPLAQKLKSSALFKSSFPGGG
  30-mer peptide degradation by recombinant enzyme (MSP-MS): The most efficiently cleaved peptides were those containing the FAPa_1, CTSL1_1 and ADAM17_2 motifs, in multiple orders
[3]
  FRET substrate cleavage by recombinant enzyme: CTSL1 cleaves the FRET substrate bearing the CTSL1_1 motif highly efficiently
